Source: the supplement of paper PMC10567573

B1: ZNF511 (parent)
chain: HLYPADFRFDKPKKSRSPASAEAP

Variants of: B1
Assay: protein stability index of a GFP-peptide fusion (GPS, HEK-293T) (PSI 1-6); higher = more stable
Conditions: c terminus: a fixed tail appended
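Further: lentivirally expressed fusions sorted by FACS into six bins by GFP to DsRed ratio, PSI derived from sequencing read proportions per bin multiplied by bin number.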

First: HLPPADFRFDKPKKSRSPASAEAP
Second: HLGPADFRFDKPKKSRSPASAEAP
The protein stability index of the first is higher: 4.73 for the first, 4.38 for the second.

Compared with HLDPADFRFDKPKKSRSPASAEAP, HLVPADFRFDKPKKSRSPASAEAP is lower in protein stability index: 4.58 for the first, 3.81 for the second.

Going from HLSPADFRFDKPKKSRSPASAEAP to HLAPADFRFDKPKKSRSPASAEAP, the protein stability index rises from 3.64 to 4.14.

Going from HLWPADFRFDKPKKSRSPASAEAP to HLKPADFRFDKPKKSRSPASAEAP, the protein stability index rises from 3.71 to 3.84.

Compared with HLIPADFRFDKPKKSRSPASAEAP, HLNPADFRFDKPKKSRSPASAEAP is lower in protein stability index: 3.73 for the first, 2.43 for the second.

First: HLMPADFRFDKPKKSRSPASAEAP
Second: HLTPADFRFDKPKKSRSPASAEAP
The protein stability index of the first is lower: 4.4 for the first, 4.65 for the second.

First: HLCPADFRFDKPKKSRSPASAEAP
Second: HLFPADFRFDKPKKSRSPASAEAP
The protein stability index of the first is higher: 3.55 for the first, 3.13 for the second.

Compared with HLHPADFRFDKPKKSRSPASAEAP, HLEPADFRFDKPKKSRSPASAEAP is higher in protein stability index: 2.69 for the first, 3.71 for the second.

Going from HLRPADFRFDKPKKSRSPASAEAP to HLLPADFRFDKPKKSRSPASAEAP, the protein stability index rises from 4.26 to 4.36.

Compared with HLQPADFRFDKPKKSRSPASAEAP, HQYPADFRFDKPKKSRSPASAEAP is lower in protein stability index: 3.85 for the first, 3.59 for the second.

Going from HSYPADFRFDKPKKSRSPASAEAP to HGYPADFRFDKPKKSRSPASAEAP, the protein stability index falls from 4.63 to 4.37.

Going from HIYPADFRFDKPKKSRSPASAEAP to HVYPADFRFDKPKKSRSPASAEAP, the protein stability index rises from 1.9 to 2.69.

First: HKYPADFRFDKPKKSRSPASAEAP
Second: HPYPADFRFDKPKKSRSPASAEAP
The protein stability index of the first is higher: 4.6 for the first, 4.52 for the second.

Compared with HMYPADFRFDKPKKSRSPASAEAP, HNYPADFRFDKPKKSRSPASAEAP is higher in protein stability index: 3.35 for the first, 4.38 for the second.

Compared with HYYPADFRFDKPKKSRSPASAEAP, HWYPADFRFDKPKKSRSPASAEAP is lower in protein stability index: 3.84 for the first, 2.87 for the second.

Going from HRYPADFRFDKPKKSRSPASAEAP to HTYPADFRFDKPKKSRSPASAEAP, the protein stability index rises from 4.1 to 4.64.

Compared with HHYPADFRFDKPKKSRSPASAEAP, HFYPADFRFDKPKKSRSPASAEAP is higher in protein stability index: 3.58 for the first, 4.37 for the second.

Going from HLYPALFRFDKPKKSRSPASAEAP to HLYPAGFRFDKPKKSRSPASAEAP, the protein stability index rises from 2.61 to 3.23.

Going from HLYPACFRFDKPKKSRSPASAEAP to HLYPAPFRFDKPKKSRSPASAEAP, the protein stability index rises from 2.52 to 3.19.

Compared with HLYPAWFRFDKPKKSRSPASAEAP, HLYPAEFRFDKPKKSRSPASAEAP is lower in protein stability index: 2.87 for the first, 2.1 for the second.

First: HLYPAAFRFDKPKKSRSPASAEAP
Second: HLYPARFRFDKPKKSRSPASAEAP
The protein stability index of the first is lower: 2.12 for the first, 2.59 for the second.

First: HLYPANFRFDKPKKSRSPASAEAP
Second: HLYPAMFRFDKPKKSRSPASAEAP
The protein stability index of the first is higher: 2.82 for the first, 1.55 for the second.

First: HLYPASFRFDKPKKSRSPASAEAP
Second: HLYPAQFRFDKPKKSRSPASAEAP
The protein stability index of the first is higher: 3.17 for the first, 2.18 for the second.

First: HLYPATFRFDKPKKSRSPASAEAP
Second: HLYPAIFRFDKPKKSRSPASAEAP
The protein stability index of the first is higher: 2.48 for the first, 1.47 for the second.

Compared with HLYPAHFRFDKPKKSRSPASAEAP, HLYPAKFRFDKPKKSRSPASAEAP is lower in protein stability index: 3 for the first, 2.22 for the second.

Compared with HLYPADCRFDKPKKSRSPASAEAP, HLYPADHRFDKPKKSRSPASAEAP is lower in protein stability index: 4.29 for the first, 3.98 for the second.

Going from HLYPADGRFDKPKKSRSPASAEAP to HLYPADERFDKPKKSRSPASAEAP, the protein stability index rises from 4.42 to 5.23.

Compared with HLYPADDRFDKPKKSRSPASAEAP, HLYPADARFDKPKKSRSPASAEAP is higher in protein stability index: 4.63 for the first, 4.81 for the second.

First: HLYTADFRFDKPKKSRSPASAEAP
Second: HLYDADFRFDKPKKSRSPASAEAP
The protein stability index of the first is lower: 3.77 for the first, 4.22 for the second.

First: HLYVADFRFDKPKKSRSPASAEAP
Second: HLYCADFRFDKPKKSRSPASAEAP
The protein stability index of the first is lower: 3.24 for the first, 3.54 for the second.

First: HLYKADFRFDKPKKSRSPASAEAP
Second: HLYYADFRFDKPKKSRSPASAEAP
The protein stability index of the first is higher: 4.5 for the first, 2.73 for the second.

First: HLYAADFRFDKPKKSRSPASAEAP
Second: HLYQADFRFDKPKKSRSPASAEAP
The protein stability index of the first is higher: 3.96 for the first, 3.94 for the second.

Going from HLYHADFRFDKPKKSRSPASAEAP to HLYRADFRFDKPKKSRSPASAEAP, the protein stability index falls from 3.95 to 3.73.

First: HLYSADFRFDKPKKSRSPASAEAP
Second: HLYGADFRFDKPKKSRSPASAEAP
The protein stability index of the first is higher: 3.9 for the first, 3.21 for the second.

Compared with HLYEADFRFDKPKKSRSPASAEAP, HLYMADFRFDKPKKSRSPASAEAP is lower in protein stability index: 4.33 for the first, 3.43 for the second.

First: HLYNADFRFDKPKKSRSPASAEAP
Second: HLYWADFRFDKPKKSRSPASAEAP
The protein stability index of the first is higher: 3.78 for the first, 2.33 for the second.

Compared with HLYIADFRFDKPKKSRSPASAEAP, HLYFADFRFDKPKKSRSPASAEAP is lower in protein stability index: 3.56 for the first, 2.85 for the second.

First: HLYLADFRFDKPKKSRSPASAEAP
Second: HLYPEDFRFDKPKKSRSPASAEAP
The protein stability index of the first is higher: 3.56 for the first, 2.3 for the second.

Compared with HLYPIDFRFDKPKKSRSPASAEAP, HLYPWDFRFDKPKKSRSPASAEAP is lower in protein stability index: 3.5 for the first, 1.63 for the second.

First: HLYPFDFRFDKPKKSRSPASAEAP
Second: HLYPYDFRFDKPKKSRSPASAEAP
The protein stability index of the first is lower: 2.63 for the first, 2.79 for the second.

Compared with HLYPGDFRFDKPKKSRSPASAEAP, HLYPNDFRFDKPKKSRSPASAEAP is lower in protein stability index: 2.62 for the first, 2.29 for the second.

Compared with HLYPLDFRFDKPKKSRSPASAEAP, HLYPKDFRFDKPKKSRSPASAEAP is lower in protein stability index: 3.02 for the first, 2.97 for the second.

Going from HLYPCDFRFDKPKKSRSPASAEAP to HLYPVDFRFDKPKKSRSPASAEAP, the protein stability index rises from 3.06 to 3.6.

Going from HLYPTDFRFDKPKKSRSPASAEAP to HLYPSDFRFDKPKKSRSPASAEAP, the protein stability index falls from 3.11 to 2.69.

Going from HLYPRDFRFDKPKKSRSPASAEAP to HLYPPDFRFDKPKKSRSPASAEAP, the protein stability index rises from 3.21 to 4.01.

First: HLYPDDFRFDKPKKSRSPASAEAP
Second: HLYPHDFRFDKPKKSRSPASAEAP
The protein stability index of the first is lower: 2.32 for the first, 3.06 for the second.

Compared with HLYPQDFRFDKPKKSRSPASAEAP, HLYPMDFRFDKPKKSRSPASAEAP is higher in protein stability index: 2.16 for the first, 2.48 for the second.
